In assay [1] the target is T1, Human IL-18Rα ectodomain (amino acids 19-329), biotinylated (human, UniProt Q13478 19-329, biotin on the AviTag (BirA ligase)).
T1 construct: range 19-329; Secreted from insect cells (gp67 signal peptide removed); also called hIL-18Rα; hIL18Rα
T1 sequence: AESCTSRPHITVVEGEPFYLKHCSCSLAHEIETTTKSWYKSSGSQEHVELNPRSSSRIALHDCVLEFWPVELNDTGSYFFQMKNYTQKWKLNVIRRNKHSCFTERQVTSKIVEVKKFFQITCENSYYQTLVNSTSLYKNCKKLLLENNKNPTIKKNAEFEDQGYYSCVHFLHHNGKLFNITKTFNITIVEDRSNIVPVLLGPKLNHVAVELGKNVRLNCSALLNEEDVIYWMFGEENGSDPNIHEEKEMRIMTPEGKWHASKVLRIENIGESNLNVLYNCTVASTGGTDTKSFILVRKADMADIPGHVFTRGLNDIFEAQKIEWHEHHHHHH
Description: SPR. In general terms: Surface plasmon resonance follows binding to a sensor surface in real time, without labels.

Assay [2] deals with T1, Human IL-18Rα ectodomain (amino acids …). Description: SPR, apparent KD, second value of the cell; Exp 1. The procedure:
(§1) Surface Plasmon Resonance (SPR) was used to perform biophysical affinity measurements of second generation DR-IL-18 variants (binding to IL-18R vs IL-18BP). Experiments were conducted using a Biacore T100 instrument and carried out at 25° C. Biotinylated IL-18Rα or IL-18BP were immobilized onto a Biacore biotin capture chip (Series S CAP sensor chip, GE Healthcare) to yield an Rmax of ˜50 RU (IL-18Rα) or ˜10 RU (IL-18BP). Measurements were made with serial dilutions of the IL-18 variants in HEPES buffered Saline-P+ buffer (10 mM HEPES pH 7.4, 150 mM NaCl, 0.005% surfactant P20). The surface was regenerated by three 60-sec injections of regeneration buffer (3/4 (v/v) 8M guanidine hydrochloride with ¼ (v/v) 1M sodium hydroxide). Experiments were performed in multiple channels simultaneously for increased observations. All data were analyzed with the Biacore T100 evaluation software version 2.0 with a 1:1 Langmuir binding model.

The target in assay [3] is T2, Human IL-18BP (amino acids 31-194), biotinylated (human, UniProt O95998 31-194, biotin on the AviTag (BirA ligase) where used biotinylated).
T2 construct: Soluble decoy receptor; also called hIL-18BP; recombinant IL-18BP
T2 sequence: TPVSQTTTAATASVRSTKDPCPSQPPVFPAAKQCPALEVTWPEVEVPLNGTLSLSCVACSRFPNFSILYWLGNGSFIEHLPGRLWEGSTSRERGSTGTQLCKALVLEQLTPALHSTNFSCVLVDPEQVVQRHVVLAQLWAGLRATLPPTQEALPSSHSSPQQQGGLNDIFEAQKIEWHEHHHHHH
Description: on-yeast binding isotherms; 20 µM used for NBD; printed without '>'; yeast-displayed variant; ratio computed with 20 µM put in for NBD.

The target of assay [4] is T1, Human IL-18Rα ectodomain (amino acids …). Description: SPR (Biacore T100), hIL-18Rα as surface ligand; Exp 2. The procedure: as §1
The target is the same in assay [5]. Description: SPR (Biacore T100), hIL-18Rα as surface ligand, 1:1 Langmuir. The procedure:
as §1

The target in assay [6] is T2, Human IL-18BP (amino acids 31-194), …. Kind of assay: SPR; KD(IL-18BP)/KD(IL-18Rα) normalized to WT IL-18; SPR; ratio from the bound KD BP >10,000 nM. The procedure: as §1
In assay [7] the target is T3, IL-18 receptor (IL-18Rα / IL-18Rβ heterodimer) on HEK-Blue IL-18 reporter cells (UniProt Q13478 19-541; O95256 20-599, limits assumed).
T3 sequence (looked up) 1: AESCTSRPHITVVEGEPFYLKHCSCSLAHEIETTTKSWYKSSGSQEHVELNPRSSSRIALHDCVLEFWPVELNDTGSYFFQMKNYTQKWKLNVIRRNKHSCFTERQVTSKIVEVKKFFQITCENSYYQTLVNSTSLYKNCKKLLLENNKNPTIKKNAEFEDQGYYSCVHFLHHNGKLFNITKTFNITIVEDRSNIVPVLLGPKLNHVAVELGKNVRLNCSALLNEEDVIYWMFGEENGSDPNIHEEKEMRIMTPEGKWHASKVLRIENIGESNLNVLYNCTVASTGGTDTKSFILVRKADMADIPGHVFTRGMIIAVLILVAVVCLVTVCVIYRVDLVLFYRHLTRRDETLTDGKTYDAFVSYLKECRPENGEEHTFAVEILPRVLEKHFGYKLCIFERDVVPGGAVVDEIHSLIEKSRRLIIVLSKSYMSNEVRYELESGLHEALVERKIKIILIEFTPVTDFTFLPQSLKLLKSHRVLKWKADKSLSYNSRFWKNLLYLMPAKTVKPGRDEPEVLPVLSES
T3 sequence (looked up) 2: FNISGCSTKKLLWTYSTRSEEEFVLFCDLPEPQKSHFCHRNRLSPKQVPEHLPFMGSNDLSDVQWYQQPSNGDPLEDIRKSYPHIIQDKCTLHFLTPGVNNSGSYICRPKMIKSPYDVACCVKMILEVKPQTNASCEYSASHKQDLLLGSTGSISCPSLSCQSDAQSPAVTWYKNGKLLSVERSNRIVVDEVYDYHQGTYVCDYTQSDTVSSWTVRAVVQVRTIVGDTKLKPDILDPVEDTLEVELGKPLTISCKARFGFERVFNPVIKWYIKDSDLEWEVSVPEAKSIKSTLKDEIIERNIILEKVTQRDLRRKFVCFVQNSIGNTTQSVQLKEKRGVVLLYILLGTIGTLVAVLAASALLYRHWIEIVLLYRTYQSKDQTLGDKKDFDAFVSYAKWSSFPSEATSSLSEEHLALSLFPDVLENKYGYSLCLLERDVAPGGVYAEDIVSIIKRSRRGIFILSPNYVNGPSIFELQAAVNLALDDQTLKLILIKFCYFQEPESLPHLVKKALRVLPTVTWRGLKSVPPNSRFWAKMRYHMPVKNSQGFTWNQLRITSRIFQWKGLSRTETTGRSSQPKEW
Kind of assay: cell-based or functional assay.

The target of assay [8] is T1, Human IL-18Rα ectodomain (amino acids …). Kind of assay: on-yeast binding isotherm (flow cytometry), drawn summary table, IL18Rα (KD). The procedure:
Individual colonies of IL-18 yeast were grown overnight at 30° C. in SDCAA liquid media and induced in SGCAA liquid media for 1 day at 20° C. IL-18 display levels on yeast were verified by flow cytometry using an anti-cMyc tag antibody (anti-myc-PE; Cell Signaling Technologies). Receptor staining with biotinylated IL-18Rα (with or without IL-18R β) or biotinylated IL-18BP was performed in PBS supplemented with 0.5% BSA and 2 mM EDTA (PBE) on ice. All analysis was performed on a Sony SA3800 flow cytometer.

Assay [9] has the same target. Description: SPR, apparent KD, first value of the cell; Exp 2. The procedure:
as §1

For assay [10] the target is unchanged. Kind of assay: SPR (Biacore T100), hIL-18Rα as surface ligand; Exp 1. The procedure:
as §1

The target in assay [11] is T2, Human IL-18BP (amino acids 31-194), …. Description: on-yeast binding isotherms; KD ratio relative to WT IL-18; yeast-displayed variant; ratio normalized to WT, from the 20 µM placeholder.
Assay [12] has the same target. Description: SPR; KD(IL-18BP)/KD(IL-18Rα) normalized to WT IL-18; SPR; normalized ratio, a bound from KD BP >10,000 nM. The protocol:
as §1

For assay [13], the target named is T1, Human IL-18Rα ectodomain (amino acids …). Kind of assay: SPR, apparent KD, second value of the cell. The procedure: as §1
For assay [14] the target is unchanged. Kind of assay: SPR, apparent KD, first value of the cell. The protocol: as §1

Numbering of substitutions follows the chain as printed.

For orientation: koff means a measure of how fast the partners let go of each other. High values mean a short-lived complex, low ones a long-lived complex. By kon is commonly meant the second-order rate constant of association. Higher therefore signals faster complex formation.

B1: SEQ ID NO: 89 (second generation human DR-IL-18 variant 6-12) (ligand)
chain: YFGKLESKLSVIRNLNDQVLFIDQGNRPLFEDMTDSDCRDNAPRTIFIISKYSDSLARGLAVTISVKCEKISTLSCENKIISFKEMNPPDNIKDTKSDIIFFQRDVPGHSRKMQFESSSYEGYFLACEKERDLFKLILKKEDELGDRSIMFTVQNED
notes: Engineered variant; recombinant soluble analyte in SPR and cell assays
On to B1, for which the Kd in assay [1] amounted to 2.2 nM; in assay [2], 2.2 nM; in assay [4], 1.84 nM; in assay [8], 17 nM; in assay [9] it was 1.8 nM; in assay [10] it was 2.24 nM. Moreover, the “KD ratio IL-18BP/IL-18Rα” value in assay [3] was over 1200. Further, the koff in assay [5] was 0.00091 s⁻¹. This molecule also gave an on-rate (kon) in [5] of 495000 M⁻¹ s⁻¹. The “IL-18 BP:Rα Dissociation Constant Ratio” value in [6] is over 9.32e+06. Besides, the “EC50-#1 (M), HEK-Blue reporter” value in [7] came out at 1.43e-10 M. The “EC50-#2 (M), HEK-Blue reporter” value in assay [7] worked out at 5.44e-11 M. The “Dissociation Constant Ratio normalized to WT IL-18” value in [11] was over 17000.

B2: SEQ ID NO: 91 (second generation human DR-IL-18 variant 6-29) (ligand)
chain: B1 chain with L56R, D105N, S110G
notes: as for B1
Turning to B2, the Kd in assay [1] was 2.7 nM; in assay [4], 2.07 nM; in assay [13] it was 2.7 nM; in assay [8], 37 nM; in assay [14], 2.1 nM; in [10] it was 2.65 nM. Further, the “IL-18 BP:Rα Dissociation Constant Ratio” value in assay [12] is over 7.59e+06. The koff in [5] was 0.00119 s⁻¹. This molecule also registered an association rate constant (kon) in assay [5] of 575000 M⁻¹ s⁻¹.

Source of the values: patent publication US20230277625A1 (SIMCHA IL 18, published 2023).
